Target: tr10b_human TNFRSF10B (UniProt O14763)

## Ras-related C3 botulinum toxin substrate 1 (Homo sapiens) (from UniProt P63000) T17N
  effect of a mutation on the interaction: decreasing interaction strength

From IntAct's records for PubMed 25843002
